Experimental data reported in IntAct's records for PubMed 20594350.

B1: Cell division cycle and apoptosis regulator protein 1 (Homo sapiens), Q8IX12 (parent)
chain: MAQFGGQKNPPWATQFTATAVSQPAALGVQQPSLLGASPTIYTQQTALAAAGLTTQTPANYQLTQTAALQQQAAAAAAALQQQYSQPQQALYSVQQQLQQPQQTLLTQPAVALPTSLSLSTPQPTAQITVSYPTPRSSQQQTQPQKQRVFTGVVTKLHDTFGFVDEDVFFQLSAVKGKTPQVGDRVLVEATYNPNMPFKWNAQRIQTLPNQNQSQTQPLLKTPPAVLQPIAPQTTFGVQTQPQPQSLLQAQISAASITPLLQTQPQPLLQQPQQKAGLLQPPVRIVSQPQPARRLDPPSRFSGRNDRGDQVPNRKDDRSRERERERRRSRERSPQRKRSRERSPRRERERSPRRVRRVVPRYTVQFSKFSLDCPSCDMMELRRRYQNLYIPSDFFDAQFTWVDAFPLSRPFQLGNYCNFYVMHREVESLEKNMAILDPPDADHLYSAKVMLMASPSMEDLYHKSCALAEDPQELRDGFQHPARLVKFLVGMKGKDEAMAIGGHWSPSLDGPDPEKDPSVLIKTAIRCCKALTGIDLSVCTQWYRFAEIRYHRPEETHKGRTVPAHVETVVLFFPDVWHCLPTRSEWETLSRGYKQQLVEKLQGERKEADGEQDEEEKDDGEAKEISTPTHWSKLDPKTMKVNDLRKELESRALSSKGLKSQLIARLTKQLKVEEQKEEQKELEKSEKEEDEDDDRKSEDDKEEEERKRQEEIERQRRERRYILPDEPAIIVHPNWAAKSGKFDCSIMSLSVLLDYRLEDNKEHSFEVSLFAELFNEMLQRDFGVRIYKSLLSLPEKEDKKEKDKKSKKDERKDKKEERDDETDEPKPKRRKSGDDKDKKEDRDERKKEDKRKDDSKDDDETEEDNNQDEYDPMEAEEAEDEEDDRDEEEMTKRDDKRDINRYCKERPSKDKEKEKTQMITINRDLLMAFVYFDQSHCGYLLEKDLEEILYTLGLHLSRAQVKKLLNKVVLRESCFYRKLTDTSKDEENHEESESLQEDMLGNRLLLPTPTVKQESKDVEENVGLIVYNGAMVDVGSLLQKLEKSEKVRAEVEQKLQLLEEKTDEDEKTILNLENSNKSLSGELREVKKDLSQLQENLKISENMNLQFENQMNKTIRNLSTVMDEIHTVLKKDNVKNEDKDQKSKENGASV

Variants of: B1
Details: with wwtr1_mouse Wwtr1, Q9EPK5
wwtr1_mouse Wwtr1, Q9EPK5, sequence (Q9EPK5 whole entry): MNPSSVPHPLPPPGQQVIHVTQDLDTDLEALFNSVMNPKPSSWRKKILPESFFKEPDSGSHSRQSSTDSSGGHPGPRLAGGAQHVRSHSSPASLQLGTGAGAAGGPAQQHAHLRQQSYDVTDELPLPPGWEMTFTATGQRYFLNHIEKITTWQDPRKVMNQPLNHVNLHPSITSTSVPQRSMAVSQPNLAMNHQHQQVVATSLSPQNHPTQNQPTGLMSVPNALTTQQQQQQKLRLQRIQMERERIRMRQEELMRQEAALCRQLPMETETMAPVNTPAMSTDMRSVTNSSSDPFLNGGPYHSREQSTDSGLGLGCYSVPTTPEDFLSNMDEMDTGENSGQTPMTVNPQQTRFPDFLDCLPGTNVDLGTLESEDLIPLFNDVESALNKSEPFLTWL

| Variant | effect of a mutation on the interaction |
| --- | --- |
| T667D | increasing interaction |
| T667A | decreasing interaction |
